Positions count from the first letter of the chain named.
Experiments:
[1] = molecular target: T1, Cdc1 (fission yeast DNA polymerase delta B-subunit), wild type (Schizosaccharomyces pombe, UniProt P87324 1-462); experiment: two-hybrid; LexA-Cdc1 bait (pBTM116 or pBTM116BN) with Gal4 activation domain-Cdc27 prey (pGAD2F-Cdc27) in S. cerevisiae CTY10-5d; ONPG liquid culture beta-galactosidase assay, mean of triplicates, as percent of wild-type Cdc1; conditions: partners not purified
T1 construct: DNA polymerase delta B-subunit Cdc1, S. pombe; cdc1+ cDNA on a 1.5 kb BamHI fragment from pBTM116-Cdc1, ORF 1386 bp; also called WT; LexA-Cdc1; source: yeast two-hybrid fusion, in S. cerevisiae CTY10-5d
T1 sequence (looked up): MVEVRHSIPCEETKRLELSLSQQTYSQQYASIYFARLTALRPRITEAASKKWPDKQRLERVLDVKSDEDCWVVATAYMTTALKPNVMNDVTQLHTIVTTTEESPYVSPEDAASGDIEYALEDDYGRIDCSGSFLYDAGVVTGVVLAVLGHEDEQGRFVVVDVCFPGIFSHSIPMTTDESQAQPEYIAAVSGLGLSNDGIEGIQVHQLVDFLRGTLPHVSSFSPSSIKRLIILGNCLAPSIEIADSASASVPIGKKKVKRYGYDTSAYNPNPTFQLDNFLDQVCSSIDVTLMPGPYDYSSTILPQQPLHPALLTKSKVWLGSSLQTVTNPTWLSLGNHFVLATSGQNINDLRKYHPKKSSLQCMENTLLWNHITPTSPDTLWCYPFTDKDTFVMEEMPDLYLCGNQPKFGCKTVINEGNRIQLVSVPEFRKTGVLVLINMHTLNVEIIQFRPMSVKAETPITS

Cdc1-J1 = molecular target: T2, Cdc1-J1 (Schizosaccharomyces pombe, UniProt P87324 1-462, Thr-GlyValProLeuThr-Gly); experiment: as above; conditions: partners not purified
T2 construct: Cdc1, S. pombe, with a pentapeptide inserted after residue 141; source: yeast two-hybrid fusion, in S. cerevisiae CTY10-5d
T2 sequence (looked up): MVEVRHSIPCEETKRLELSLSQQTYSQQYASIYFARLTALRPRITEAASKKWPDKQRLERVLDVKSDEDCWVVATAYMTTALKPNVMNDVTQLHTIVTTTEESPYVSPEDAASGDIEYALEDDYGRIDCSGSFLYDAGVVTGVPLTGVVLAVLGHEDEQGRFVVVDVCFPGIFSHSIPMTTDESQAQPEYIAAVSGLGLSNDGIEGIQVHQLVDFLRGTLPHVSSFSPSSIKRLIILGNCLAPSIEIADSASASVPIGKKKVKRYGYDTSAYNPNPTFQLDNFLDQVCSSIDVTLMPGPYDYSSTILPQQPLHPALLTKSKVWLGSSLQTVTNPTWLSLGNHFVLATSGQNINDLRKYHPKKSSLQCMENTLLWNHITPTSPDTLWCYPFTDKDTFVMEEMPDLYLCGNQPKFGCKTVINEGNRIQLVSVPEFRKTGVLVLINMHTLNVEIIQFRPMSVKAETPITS

Cdc1-J21 = molecular target: T3, Cdc1-J21 (Schizosaccharomyces pombe, UniProt P87324 1-462, Leu-GlyValProGlnLeu-Asp); experiment: as above; conditions: partners not purified
T3 construct: Cdc1, S. pombe, with a pentapeptide inserted after residue 275; source: yeast two-hybrid fusion, in S. cerevisiae CTY10-5d
T3 sequence (looked up): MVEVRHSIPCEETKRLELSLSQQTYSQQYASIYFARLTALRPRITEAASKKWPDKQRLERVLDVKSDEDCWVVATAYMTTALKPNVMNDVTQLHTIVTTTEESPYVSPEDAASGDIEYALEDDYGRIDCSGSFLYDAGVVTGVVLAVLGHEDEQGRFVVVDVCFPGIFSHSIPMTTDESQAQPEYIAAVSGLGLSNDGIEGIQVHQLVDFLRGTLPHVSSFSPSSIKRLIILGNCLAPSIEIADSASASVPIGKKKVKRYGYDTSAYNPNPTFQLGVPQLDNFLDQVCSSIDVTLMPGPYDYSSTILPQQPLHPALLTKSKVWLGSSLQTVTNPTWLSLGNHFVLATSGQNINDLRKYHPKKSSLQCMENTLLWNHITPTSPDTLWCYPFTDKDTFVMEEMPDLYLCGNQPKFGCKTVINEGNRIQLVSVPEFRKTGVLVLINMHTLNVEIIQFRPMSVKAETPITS

Cdc1-A10 = molecular target: T4, Cdc1-A10 (Schizosaccharomyces pombe, UniProt P87324 1-462, Asn328Ala | Pro329Ala); experiment: as above; conditions: partners not purified
T4 construct: Cdc1, S. pombe, double point mutant (A5 and A6 combined); source: yeast two-hybrid fusion, in S. cerevisiae CTY10-5d
T4 sequence (looked up): T1 sequence (looked up) with N328A, P329A

[2] = molecular target: Cdc1-J17 (Schizosaccharomyces pombe) (UniProt P87324); experiment: two-hybrid; LexA-Cdc1 bait (pBTM116 or pBTM116BN) with Gal4-Pol3 prey and co-expressed c-myc-tagged Cdc27 (pAA-Cdc27) in S. cerevisiae CTY10-5d; ONPG liquid culture beta-galactosidase assay, mean of triplicates, as percent of wild-type Cdc1

B1: Cdc27 (fission yeast DNA polymerase delta C-subunit) (natural protein, Schizosaccharomyces pombe, UniProt P30261 1-372, looked up)
chain: MEEWRNFLDIKVINESSLVTVDNLSLQLDISSEKAQEYLNMFYQGNDFLYPIYLIHGQPIDDEINLEIDEESQPISNFPVLQYILCDKSSLQEKQSRLKSGYKTVIFALSSAPLSDFDELLPAVYEIREKDVLYKKEDADKYGFIFNENSVPRVLKKAPSTHSPQLSVPSKTSTIDKTDTRSTEKTKGKDIFSNARNQKGNSSRKNKKAPLENHKEKEPLLPKEEKLSEQAKRERDDLKNIMQLEDESVSTTSVHDSEDDNLDSNNFQLEIGTEAKSAAPDEPQEIIKSVSGGKRRGKRKVKKYATTKDEEGFLVTKEEEVWESFSEDENISTGTSNVVRNKPTTVNIATKKKNTAQSKPQQKSIMSFFGKK
notes: DNA polymerase delta C-subunit Cdc27, S. pombe; prey plasmid pGAD2F-Cdc27; also called pGAD2F-Cdc27; source: yeast two-hybrid fusion, in S. cerevisiae CTY10-5d
two-hybrid beta-galactosidase activity, % of wild-type Cdc1 [1]: 100%
two-hybrid beta-galactosidase activity, % of wild-type Cdc1 (Cdc1-J1): < 1%
two-hybrid beta-galactosidase activity, % of wild-type Cdc1 (Cdc1-J21): < 1%
two-hybrid beta-galactosidase activity, % of wild-type Cdc1 (Cdc1-A10): 72%

B2: Pol3 (fission yeast DNA polymerase delta catalytic subunit) (natural protein, Schizosaccharomyces pombe, UniProt P30316 1-1086, looked up)
chain: MTDRSSNEGVVLNKENYPFPRRNGSIHGEITDVKRRRLSERNGYGDKKGSSSKEKTSSFEDELAEYASQLDQDEIKSSKDQQWQRPALPAINPEKDDIYFQQIDSEEFTEGSVPSIRLFGVTDNGNSILVHVVGFLPYFYVKAPVGFRPEMLERFTQDLDATCNGGVIDHCIIEMKENLYGFQGNEKSPFIKIFTTNPRILSRARNVFERGEFNFEELFPVGVGVTTFESNTQYLLRFMIDCDVVGMNWIHLPASKYQFRYQNRVSNCQIEAWINYKDLISLPAEGQWSKMAPLRIMSFDIECAGRKGVFPDPSIDPVIQIASIVTQYGDSTPFVRNVFCVDTCSQIVGTQVYEFQNQAEMLSSWSKFVRDVDPDVLIGYNICNFDIPYLLDRAKSLRIHNFPLLGRIHNFFSVAKETTFSSKAYGTRESKTTSIPGRLQLDMLQVMQRDFKLRSYSLNAVCSQFLGEQKEDVHYSIITDLQNGTADSRRRLAIYCLKDAYLPQRLMDKLMCFVNYTEMARVTGVPFNFLLARGQQIKVISQLFRKALQHDLVVPNIRVNGTDEQYEGATVIEPIKGYYDTPIATLDFSSLYPSIMQAHNLCYTTLLDSNTAELLKLKQDVDYSVTPNGDYFVKPHVRKGLLPIILADLLNARKKAKADLKKETDPFKKAVLDGRQLALKVSANSVYGFTGATNGRLPCLAISSSVTSYGRQMIEKTKDVVEKRYRIENGYSHDAVVIYGDTDSVMVKFGVKTLPEAMKLGEEAANYVSDQFPNPIKLEFEKVYFPYLLISKKRYAGLFWTRTDTYDKMDSKGIETVRRDNCPLVSYVIDTALRKMLIDQDVEGAQLFTKKVISDLLQNKIDMSQLVITKALSKTDYAAKMAHVELAERMRKRDAGSAPAIGDRVAYVIIKGAQGDQFYMRSEDPIYVLENNIPIDAKYYLENQLSKPLLRIFEPILGEKASSLLHGDHTRTISMAAPSVGGIMKFAVKVETCLGCKAPIKKGKTALCENCLNRSAELYQRQVAQVNDLEVRFARLWTQCQRCQGSMHQDVICTSRDCPIFYMRIAEHKKLQQSVDLLKRFDEMSW
notes: DNA polymerase delta catalytic subunit Pol3, S. pombe; prey plasmid named pACT-Pol3 in the results and pGAD2F-Pol3 in the methods; also called Gal4-Pol3; pACT-Pol3; source: yeast two-hybrid fusion, in S. cerevisiae CTY10-5d
two-hybrid beta-galactosidase activity, % of wild-type Cdc1 [2]: 2%
